“Also recorded” adds a separate entry of the source.
Tests used:
EGFRvIII CARTs = test: Cytokine production of EGFRvIII CARTs stimulated by ligand-presenting MSRs; assay type: cell-based; conditions: lipid-coated MSRs, multiplex cytokine analysis
Experimental: Briefly, liposomes primarily composed of POPC with 1 mol % PE-biotin were formed using a thin film rehydration method and extrusion through a 100 nm polycarbonate membrane. Hydroxyl functionalized MSRs were incubated with the liposomes to allow the formation of a supported lipid bilayer on the MSR surface (FIG. 6). To functionalize the MSRs with CD3 and CD28 agonistic antibodies, MSRs were washed several times with PBS, incubated with streptavidin, and then tethered with biotinylated CD3 and CD28 antibodies. For MSR-immobilization of EGFRvIII CAR-binding peptides, a biotinylated EGFRvIII CAR-binding peptide was used (FIG. 7).
After incubation with the desired ligands, MSRs were washed several times with PBS and resuspended in culture medium at various concentrations and incubated with T cells. […] Cytokine production was assessed using a multiplex cytokine analysis method (Mesoscale Delivery V-Plex).

[1] = test system: human dermal lymphatic endothelial cells (HDLECs); test: HDLECs sprouting (tube formation) assay; assay type: cell-based; conditions: 600 μg of VEGF-C protein, overnight, phalloidin staining
Experimental: Human Dermal Lymphatic Endothelial Cells (HDLECs) were seeded (p0) and passaged at 75% confluence until p4 or enough cells were obtained for experiments. One ml was then aliquoted into Eppendorf tubes, treated with 600 μg of VEGF-C protein, and vortexed. Each treatment was added to warmed media in a 6 well plate and incubated overnight at 37 C (5% CO2). For imaging analysis cells were washed and then fixed with 3.7% formalin-0.05% Triton X-100 solution (fixing buffer), then washed and coated with 0.1% Triton X-100 solution (permeabilization buffer). After washing twice with PBS cells were coated with 0.05% Triton X-100 in 1% BSA solution (blocking buffer). DAPI and phalloidin staining was performed according to known protocols. After staining cells were washed twice with PBS and imaged.
An overview of the experimental setup of the in vitro sprouting assay on HDLECs to test the biological activity of VEGF-C variants is shown in FIG. 20A. HDLECs were first seeded (p0) and passaged at 75% confluence until p4 or enough cells were obtained for experiments. About 1 mL of the HDLECs was then aliquoted into Eppendorf tubes, treated with 600 μg of VEGF-C protein, and vortexed. Each treatment was added to warmed media in a 6 well plate and incubated overnight at 37 C (5% CO2). For imaging analysis, cells were washed and then fixed with 3.7% formalin-0.05% Triton X-100 solution (fixing buffer), then washed and coated with 0.1% Triton X-100 solution (permeabilization buffer). After washing twice with PBS, cells were coated with 0.05% Triton X-100 in 1% BSA solution (blocking buffer). DAPI and phalloidin staining was performed according to known protocols. After phalloidin staining, cells were washed twice with PBS, and imaged for tube formation.

[2] = test system: lymphatic endothelial cells (LECs); test: In vivo lymphangiogenesis in mouse skin after cryogel delivery (flow cytometry); parameters: species or system C57/BL6 mice; conditions: for in vivo lymphangiogenesis (LEC counts per mg of tissue): 10 μg VEGF-C in cryogel (0.25 mg/ml laponite), day 14
Experimental: (§1) Tissues were harvested from mice, weighted, and cut into very fine pieces with scissors. Samples were then enzymatically digested under constant stirring in of digestion media containing collagenase 4 and DNAse 1. Samples were then pipetted up and down. Following pipetting, digestion media containing collagenase D and DNAse 1 was added to the samples. Samples were pipetted up and down for 3 cycles. EDTA was added (5 mM) and cells were filtered through 70 μm filters and 40 uM mesh and resuspended in Fc blocking buffer. Cells were washed and stained for FACS analysis.
(§2) Cryogels (0.25 mg/ml laponite) containing 10 μg of different VEGF-C constructs were injected superficially into the dermis mice (N=5/group) at day 0. At day 14 mice were euthanized and the skin/cryogel (combined) were dissected for digestion and FACS analysis. Representative FACS plots of LECs (CD31^+, PDPN^+) are pre-gated on FSC-A/SSC-A, and CD45^− (FIG. 22). The results of FIG. 23 bear on the delivery of VEGF-C. Mice were injected with VEGF-C (N=12) or blank cryogels (N=10) synthesized as previously mentioned. Skin/gels from mice were harvested at timepoints day 7, 14, and 21, digested, and stained for FACS. LECs were gated on CD45^− CD31^+ PDPN^+. BECs were gated on CD45^− CD31^+ PDPN^−. CD4 and CD8 T Cells were gated on CD45^+ CD11b^−CD11c^−Thy1^+.
First, cryogels (0.25 mg/ml laponite) containing 10 μg of different VEGF-C forms, including the dimeric forms of the major and minor mature forms that are wild-type (#2 and #7, respectively) and the major and minor mature forms that comprise the C137A mutation (#9 and #8, respectively), were injected superficially into the dermis of mice (N=5/group) at day 0. At day 14 mice were euthanized and the skin/cryogel (combined) were dissected for digestion and FACS analysis (FIG. 22A). Specifically, tissues were harvested from mice, weighted, and cut into very fine pieces with scissors. Samples were then enzymatically digested under constant stirring of digestion media containing collagenase 4 and DNAse 1. Samples were then pipetted up and down. Following pipetting, digestion media containing collagenase D and DNAse 1 was added to the samples. Samples were pipetted up and down for 3 cycles. EDTA was added (5 mM) and cells were filtered through 70 μm filters and 40 μM mesh and resuspended in Fc blocking buffer. Cells were washed and stained for FACS analysis.
In addition, the response of skin lymphatics to […] VEGF-C delivered by alginate cryogels was measured. […] Skin/gels from mice were harvested as described above, at timepoints day 7, 14, and 21, digested, and stained for FACS. LECs were gated on CD45^− CD31^+ PDPN^+. BECs were gated on CD45^− CD31^+ PDPN^−. […] The number of cells per mg of tissue were also quantified.

[3] = test system: CD4+ T cells and CD8+ T cells; test: Immune infiltration of mouse skin after cryogel delivery (flow cytometry); assay type: in vivo, C57/BL6 mice; conditions: skin on top of the cryogels
Experimental: as §1
as §2, with “BECs were gated on CD45^− CD31^+ PDPN^−. CD4 and CD8 T Cells were gated on CD45^+ CD11b^−CD11c^−Thy1^+.” left out
In addition, the response of skin lymphatics to […] VEGF-C delivered by alginate cryogels was measured. […] The number of cells per mg of tissue were also quantified.

Row | Molecule | interferon gamma and IL-2 production (EGFRvIII CARTs) | sprouting of HDLECs (tube formation) [1] | in vivo lymphangiogenesis (LEC counts per mg of tissue) ([2]; skin) | other results
1 | EGFRvIII CAR-binding peptide bound to the surface of the MSRs: biotinylated peptide LEEKKGNYVVTDH (SEQ ID NO: 756) coupled via streptavidin to lipid-coated MSRs | produced interferon gamma and IL-2 |  |  | 
2 | free EGFRvIII CAR-binding peptide in solution: EGFRvIII CAR-binding peptide LEEKKGNYVVTDH (SEQ ID NO: 756) [reference compound] | no response |  |  | 
3 | #8: minor mature VEGF-C (103-227) with C137A mutation, SEQ ID NO: 735 (His) / 736 (protein) TEETIKFAAAHYNTEILKSIDNEWRKTQCMPREVAIDVGKEFGVATNTFFKPPCVSVYRCGGCCNSEGLQCMNTSTSYLSKTLFEITVPLSQGPKPVTISFANHTSCRCMSKLDVYRQVHSIIRR |  | better sprouting of HDLECs than the immature form | high in vivo lymphangiogenesis; also recorded: higher amounts of LECs compared to the dimers of the major and minor mature forms that are wild-type | blood vascular endothelial cells (BECs, CD45−CD31+PDPN−) ([2]; skin, 14 days after cryogel delivery): not affected; day of peak T cell / immune infiltration after cryogel delivery [3]: 14 days
4 | #9: major mature VEGF-C (112-227) with C137A mutation, SEQ ID NO: 737 (His) / 738 (protein) AHYNTEILKSIDNEWRKTQCMPREVAIDVGKEFGVATNTFFKPPCVSVYRCGGCCNSEGLQCMNTSTSYLSKTLFEITVPLSQGPKPVTISFANHTSCRCMSKLDVYRQVHSIIRR |  | better sprouting of HDLECs than the immature form | high in vivo lymphangiogenesis; also recorded: higher amounts of LECs compared to the dimers of the major and minor mature forms that are wild-type | 
5 | #7: minor mature VEGF-C (103-227), wild type, SEQ ID NO: 733 (His) / 734 (protein, listed as Homo sapiens) TEETIKFAAAHYNTEILKSIDNEWRKTQCMPREVCIDVGKEFGVATNTFFKPPCVSVYRCGGCCNSEGLQCMNTSTSYLSKTLFEITVPLSQGPKPVTISFANHTSCRCMSKLDVYRQVHSIIRR |  | better sprouting of HDLECs than the immature form |  | time of peak lymphangiogenesis after cryogel delivery ([2]; 10 μg VEGF-C in alginate cryogel, subcutaneous): 14 days
6 | #2: major mature VEGF-C (112-227), wild type, SEQ ID NO: 731 (His) / 732 (protein, listed as Homo sapiens) AHYNTEILKSIDNEWRKTQCMPREVCIDVGKEFGVATNTFFKPPCVSVYRCGGCCNSEGLQCMNTSTSYLSKTLFEITVPLSQGPKPVTISFANHTSCRCMSKLDVYRQVHSIIRR |  | better sprouting of HDLECs than the immature form |  | 
